The supplement of paper PMC7125110
± gives the standard error. This sample holds only a part of the variants without activity.

B1: glmS ribozyme (parent)
chain: AUAAAAGCGCCAGAACUACAGAAAUGUAGUUGACGAGGAGGAGGUUUAUCGAAUUUUCGGCGGAUGCCUCCAAA

Variants of: B1
Experiment: self-cleavage kobs at 640 uM GlcN6P; higher = faster cleavage; RNA array
Conditions: with glucosamine-6-phosphate
In short: (§1)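 Tiles of sequenced MiSeq chips were imaged over ~14 h at 37 °C. On them, barcoded ribozyme variants had been transcribed in situ by E. coli RNA polymerase and were tracked via a hybridised Cy3 probe while glucosamine-6-phosphate (40 μM to 10 mM) in HEPES/KCl/Mg(OAc)2 buffer flowed in. Per-tile medians, normalised to baseline and to non-cleaving reference variants, were fit to one- or two-exponential decays for kobs, and weighted Michaelis–Menten fits gave kcat and KM.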

Variant | self-cleavage kobs at 640 uM GlcN6P [s⁻¹]
U30C U55A G60A C71A | < 1e-05
G9U A36U G40U G60A | < 1e-05
C34A C67U | < 1e-05
G29U U55A A64G | 0.000889 ± 0.00022
C10A G38U A39G | < 1e-05
A39C U46A U56G | 4.61e-05 ± 1.8e-05
G9U C34G C58U | < 1e-05
C16G A33C G38U A52U | < 1e-05
G29C G44C C71U | < 1e-05
G7A G32A U49G | < 1e-05
U30C C34G | < 1e-05
G35C G38A C68G | 0.00152 ± 0.00066
A12C A14U U30A U69G | 9e-05 ± 3.5e-05
U49G C68G U69G | 5.67e-05 ± 2.1e-05
G13U G51U U55A | < 1e-05
C34G U45C G59U G62A G66A | < 1e-05
A14U A36C G44A U55C C61A | < 1e-05
A12C U31A U57A | 4.6e-05 ± 2.3e-05
A6U C16U U47A | 6.84e-05 ± 2.1e-05
A33G A36G U47G C71G | 0.000121 ± 4.4e-05
A14C G40C G41C G44C | < 1e-05
C11A U31C A42C | < 1e-05
C10G A33G | < 1e-05

Variant | self-cleavage kobs at 640 uM GlcN6P [s⁻¹]
G29U G43C U56C | < 1e-05
U47G G62U | < 1e-05
A6G A52U G60U | < 1e-05
C16U C58U G63U | < 1e-05
A14G U49A G63U | < 1e-05
C16U U31A A33C U56G C68G | < 1e-05
G35U G38U G41C | < 1e-05
C16G G29U G35A | < 1e-05
U54C U55G C58A | 7.47e-05 ± 1.6e-05
G13C A39G U57C A64U C67U C70U | < 1e-05
C10U G37C A39G G41C A48U G62U U65A | < 1e-05
C34A G38U A53G | < 1e-05
A12C G41U U46G | 8.69e-05 ± 1.8e-05
C10U G43A C50A | < 1e-05
A36C G43U U45G U46C U65G | < 1e-05
G35U C67G C68G | 6.14e-05 ± 2.2e-05
C11A C61U | < 1e-05
G44U A53G U65C | < 1e-05
G41A U45C C70A | 5.47e-05 ± 1.8e-05
A14U A15U G60U C71U | < 1e-05
G9A G29A A33C G66A | < 1e-05
C11U G32C U47C C50A | < 1e-05
G13C U30A G41U G63A A64C | < 1e-05

Variant | self-cleavage kobs at 640 uM GlcN6P [s⁻¹]
G29U A33C U49G A64U | < 1e-05
A15U A52G C58U | < 1e-05
A6C G9A G37A G51C | < 1e-05
A52C A53G G60C U65C | < 1e-05
C11U U31A A53U C70G | 0.000209 ± 6.9e-05
C10U C16G U31G A33C C70G | < 1e-05
C16G U54A U65G | 0.000305 ± 0.00011
U30G C61U C71G | < 1e-05
A12U A15G C67A | 0.00125 ± 0.00035
A48U U57G G62U | < 1e-05
G60A C61U C70U | < 1e-05
C8U C10U U45C | < 1e-05
G35U U47G A52G C70A | 9.25e-05 ± 3.2e-05
A15U G41A G44U C50U | < 1e-05
A39U C50G A52U G59U C67G | < 1e-05
G26U C71A | 0.000733 ± 0.0002
A48C C50G C67U C68U | 0.000151 ± 3.3e-05
G32C U56A | 3.99e-05 ± 1.8e-05
G13U C16U G37U U47G U57A C58U G60U | < 1e-05
A36U G44A G62A C71G | < 1e-05
A6C U55G U65G C67U | < 1e-05

Variants of: B1
Experiment: self-cleavage kobs at 2500 uM GlcN6P; higher = faster cleavage; RNA array
Conditions: with glucosamine-6-phosphate
In short: as §1

Variant | self-cleavage kobs at 2500 uM GlcN6P [s⁻¹]
C34A C67U | < 1e-05
G29U U55A A64G | 0.00375 ± 0.00061
C10A G38U A39G | < 1e-05
G9U C34G C58U | < 1e-05
A12C U31A U57A | 4.93e-05 ± 1.6e-05
A6U C16U U47A | 0.000103 ± 3.5e-05
A14C G40C G41C G44C | < 1e-05
A6G A52U G60U | < 1e-05
G35U G38U G41C | < 1e-05
U54C U55G C58A | 0.000102 ± 1.2e-05
C10U G37C A39G G41C A48U G62U U65A | < 1e-05
A12C G41U U46G | 7.37e-05 ± 2.8e-05
A36C G43U U45G U46C U65G | < 1e-05
C11A C61U | < 1e-05
G13C U30A G41U G63A A64C | < 1e-05
C11U U31A A53U C70G | 0.000251 ± 8.4e-05
C16G U54A U65G | 0.000707 ± 0.00023
A12U A15G C67A | 0.00634 ± 0.0023
A48U U57G G62U | < 1e-05
G60A C61U C70U | < 1e-05
C8U C10U U45C | < 1e-05
G26U C71A | 0.000394 ± 0.0001
A48C C50G C67U C68U | 0.000255 ± 8.7e-05
G32C U56A | 2.05e-05 ± 9.8e-06
A36U G44A G62A C71G | < 1e-05

Variants of: B1
Experiment: self-cleavage kobs at 10000 uM GlcN6P; higher = faster cleavage; RNA array
Conditions: with glucosamine-6-phosphate
In short: as §1

Variant | self-cleavage kobs at 10000 uM GlcN6P [s⁻¹]
U30C C34G | < 1e-05
C10G A33G | < 1e-05
C16U C58U G63U | < 1e-05
C11A C61U | < 1e-05
A14U A15U G60U C71U | < 1e-05
A39U C50G A52U G59U C67G | < 1e-05
G32C U56A | 5.18e-05 ± 7.3e-06
